In PMC13612217:

Biological target: S-chain of the optimized human DROP-CAR containing dmLD3 (human)

- percent of anti-PSMA DROP-CAR Jurkat cells still bound to a PC3-PIP monolayer at 1,000 pN (z-Movi acoustic force ramp), with venetoclax, partially detached cells counted as bound: 30%
- percent of anti-PSMA DROP-CAR Jurkat cells still bound to a PC3-PIP monolayer at 1,000 pN (z-Movi acoustic force ramp), with venetoclax, partially detached cells counted as dissociated: < 10%
- percent of anti-PSMA DROP-CAR Jurkat cells still bound to a PC3-PIP monolayer at 1,000 pN (z-Movi acoustic force ramp), without venetoclax, partially detached cells counted as bound: 64%
- percent of anti-PSMA DROP-CAR Jurkat cells still bound to a PC3-PIP monolayer at 1,000 pN (z-Movi acoustic force ramp), without venetoclax, partially detached cells counted as dissociated: 30%
Substance: R-domain of the anti-PSMA DROP-CAR (J591 scFv fused to Bcl-2)
